Laboratory results as given in US20240117018A1.

Legend:
Assay in all cases: cell-based or functional assay
[1] = biological target: HIV-1 Env of pseudovirus Ce704809221_1B3 (HIV-1)
[2] = biological target: HIV-1 Env pseudovirus X1254_c3 (HIV-1)
[3] = biological target: HIV-1 Env pseudovirus C1080.c03 (HIV-1)
[4] = biological target: HIV-1 Env of pseudovirus Du156.12 (HIV-1)
[5] = biological target: HIV-1 Env pseudovirus 3016.v5.c45 (HIV-1)
[6] = biological target: HIV-1 Env of pseudovirus Q769.d22 (HIV-1)
[7] = biological target: HIV-1 Env pseudovirus 6540.v4.c1 (HIV-1)
[8] = biological target: HIV-1 Env of pseudovirus 1012_11_TC21_3257 (HIV-1)
[9] = biological target: HIV-1 Env of pseudovirus CNE30 (HIV-1)
[10] = biological target: HIV-1 Env of pseudovirus Ce1176_A3 (HIV-1)
[11] = biological target: HIV-1 Env of pseudovirus REJO4541.67 (HIV-1)
[12] = biological target: HIV-1 Env pseudovirus BJOX010000.06.2 (HIV-1)
[13] = biological target: HIV-1 Env pseudovirus BJOX025000.01.1 (HIV-1)
[14] = biological target: HIV-1 Env pseudovirus 620345.c01 (HIV-1)
[15] = biological target: HIV-1 Env pseudovirus 211-9 (HIV-1)

| Substance | IC50 [1] | IC80 [1] | IC50 (Titer in TZM.bl cells) [2] | IC80 (Titer in TZM.bl cells) [2] | IC50 (Titer in TZM.bl cells) [3] | IC80 (Titer in TZM.bl cells) [3] | IC50 [4] | IC80 [4] | IC50 (Titer in TZM.bl cells) [5] | IC80 (Titer in TZM.bl cells) [5] | IC50 [6] | IC80 [6] | IC50 (Titer in TZM.bl cells) [7] | IC80 (Titer in TZM.bl cells) [7] | IC50 [8] | IC80 [8] | IC50 [9] | IC80 [9] | IC50 [10] | IC80 [10] | also measured |
| --- | --- | --- | --- | --- | --- | --- | --- | --- | --- | --- | --- | --- | --- | --- | --- | --- | --- | --- | --- | --- | --- |
| 8ANC195 (antibody) | 0.48 µg/mL | 3.52 µg/mL | 6.95 µg/mL | 6.95 µg/mL | 0.17 µg/mL | 1.12 µg/mL | 0.22 µg/mL | 1.56 µg/mL | 0.87 µg/mL | > 50 µg/mL | 0.26 µg/mL | 1.2 µg/mL | > 50 µg/mL | > 50 µg/mL | > 50 µg/mL | > 50 µg/mL | 7.52 µg/mL | 40.5 µg/mL | 4.45 µg/mL | 35.2 µg/mL | IC50 [11]: 0.08 µg/mL; IC80 [11]: 0.68 µg/mL; IC50 (Titer in TZM.bl cells) [12]: 0.85 µg/mL; IC80 (Titer in TZM.bl cells) [12]: 5.84 µg/mL; IC50 (Titer in TZM.bl cells) [13]: 4.96 µg/mL; IC80 (Titer in TZM.bl cells) [13]: > 50 µg/mL; IC50 (Titer in TZM.bl cells) [14]: > 50 µg/mL; IC80 (Titer in TZM.bl cells) [14]: > 50 µg/mL; IC50 (Titer in TZM.bl cells) [15]: 1.34 µg/mL; IC80 (Titer in TZM.bl cells) [15]: 8.43 µg/mL |
| VRC07 (antibody) | 0.273 µg/mL | 1.14 µg/mL | 0.041 µg/mL | 0.2 µg/mL | 2.03 µg/mL | 8.25 µg/mL | 0.041 µg/mL | 0.149 µg/mL | 0.095 µg/mL | 0.392 µg/mL | 0.018 µg/mL | 0.087 µg/mL | > 50 µg/mL | > 50 µg/mL | 0.014 µg/mL | 0.045 µg/mL | 0.326 µg/mL | 1.08 µg/mL | 0.52 µg/mL | 2.6 µg/mL | IC50 [11]: 0.011 µg/mL; IC80 [11]: 0.037 µg/mL; IC50 (Titer in TZM.bl cells) [12]: 1.06 µg/mL; IC80 (Titer in TZM.bl cells) [12]: 10 µg/mL; IC50 (Titer in TZM.bl cells) [13]: 0.279 µg/mL; IC80 (Titer in TZM.bl cells) [13]: 2.29 µg/mL; IC50 (Titer in TZM.bl cells) [14]: > 50 µg/mL; IC80 (Titer in TZM.bl cells) [14]: > 50 µg/mL; IC50 (Titer in TZM.bl cells) [15]: 5.92 µg/mL; IC80 (Titer in TZM.bl cells) [15]: 38 µg/mL |
| 3BNC117 (antibody) | 0.08 µg/mL | 0.31 µg/mL | 0.08 µg/mL | 0.27 µg/mL | 0.25 µg/mL | 1.73 µg/mL | 0.02 µg/mL | 0.08 µg/mL | 1.38 µg/mL | > 30 µg/mL | 0.01 µg/mL | 0.04 µg/mL | > 50 µg/mL | > 50 µg/mL | 0.02 µg/mL | 0.07 µg/mL | 0.26 µg/mL | 0.85 µg/mL | 0.22 µg/mL | 0.75 µg/mL | IC50 [11]: 0.01 µg/mL; IC80 [11]: 0.05 µg/mL; IC50 (Titer in TZM.bl cells) [12]: 1.58 µg/mL; IC80 (Titer in TZM.bl cells) [12]: 10.4 µg/mL; IC50 (Titer in TZM.bl cells) [13]: 0.05 µg/mL; IC80 (Titer in TZM.bl cells) [13]: 0.2 µg/mL; IC50 (Titer in TZM.bl cells) [14]: > 15 µg/mL; IC80 (Titer in TZM.bl cells) [14]: > 15 µg/mL; IC50 (Titer in TZM.bl cells) [15]: 0.35 µg/mL; IC80 (Titer in TZM.bl cells) [15]: 1.28 µg/mL |
